Test results published in doi:10.1101/2025.01.09.632221 (bioRxiv, 2025).

Legend:
[1] = target: sHcp-His6 (Bacteroides fragilis NCTC9343); assay: SEC
[2] = target: sHcp-His6 (Bacteroides fragilis NCTC9343); assay: SDS-PAGE
crystal structure = target: the molecule itself; assay: crystal structure
Hcp2-His6 = target: T1, Hcp2-His6 (Bacteroides fragilis NCTC9343, UniProt A0A380Z0E1 1-135); assay: pull-down
T1 sequence (looked up): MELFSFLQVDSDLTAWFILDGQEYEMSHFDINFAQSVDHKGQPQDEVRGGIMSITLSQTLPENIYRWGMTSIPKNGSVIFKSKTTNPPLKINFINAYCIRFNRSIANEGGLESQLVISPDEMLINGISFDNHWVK

For sHcp-His6 (natural protein), the stoichiometry N [1] was 6 and the stoichiometry N [2] was 3.

B1: C-terminal 6His-tagged Se-Met sHcp protein (natural protein, Bacteroides fragilis NCTC9343)
chain: MAFRATLSFAGKEFDVLDCTYSLKRDVDSKGRPSSNIYGGQIRLHVESTDDTSILENMTNQFKPHSGSIVFKKGDEEAKMKELTWENGYITEFTENIDIVGSQPMTITFVVSAQVIKIGGAQFEQNWPK
modifications: selenomethionine in place of methionine
With B1 the “stoichiometry N” value (crystal structure) was 6.

B2: Hcp1, untagged, co-expressed in E. coli BL21(DE3) (natural protein, Bacteroides fragilis NCTC9343, UniProt Q5LDT5 1-142, looked up)
chain: MFGHKSFLRIGALGDSSISGLYKDSYELENCHFSFNQGTNTDGKPQTDVRGGTLYLTYAGLPQDDMLRWILNSKKYEDGAIVICDDSDEPLEKILFEQAACTGLNIEYTQKGKAYIHTKIILQVRKIKVGETTFENRWTINE
B2 was tested, and the “stoichiometry N” value (Hcp2-His6) was 2 Hcp1 per Hcp2 (printed as the ratio 4:2).
